In the assay the target is T1, human ROBO2 (pCI-hROBO2-transfected HEK293 cells) (human).
T1 chain: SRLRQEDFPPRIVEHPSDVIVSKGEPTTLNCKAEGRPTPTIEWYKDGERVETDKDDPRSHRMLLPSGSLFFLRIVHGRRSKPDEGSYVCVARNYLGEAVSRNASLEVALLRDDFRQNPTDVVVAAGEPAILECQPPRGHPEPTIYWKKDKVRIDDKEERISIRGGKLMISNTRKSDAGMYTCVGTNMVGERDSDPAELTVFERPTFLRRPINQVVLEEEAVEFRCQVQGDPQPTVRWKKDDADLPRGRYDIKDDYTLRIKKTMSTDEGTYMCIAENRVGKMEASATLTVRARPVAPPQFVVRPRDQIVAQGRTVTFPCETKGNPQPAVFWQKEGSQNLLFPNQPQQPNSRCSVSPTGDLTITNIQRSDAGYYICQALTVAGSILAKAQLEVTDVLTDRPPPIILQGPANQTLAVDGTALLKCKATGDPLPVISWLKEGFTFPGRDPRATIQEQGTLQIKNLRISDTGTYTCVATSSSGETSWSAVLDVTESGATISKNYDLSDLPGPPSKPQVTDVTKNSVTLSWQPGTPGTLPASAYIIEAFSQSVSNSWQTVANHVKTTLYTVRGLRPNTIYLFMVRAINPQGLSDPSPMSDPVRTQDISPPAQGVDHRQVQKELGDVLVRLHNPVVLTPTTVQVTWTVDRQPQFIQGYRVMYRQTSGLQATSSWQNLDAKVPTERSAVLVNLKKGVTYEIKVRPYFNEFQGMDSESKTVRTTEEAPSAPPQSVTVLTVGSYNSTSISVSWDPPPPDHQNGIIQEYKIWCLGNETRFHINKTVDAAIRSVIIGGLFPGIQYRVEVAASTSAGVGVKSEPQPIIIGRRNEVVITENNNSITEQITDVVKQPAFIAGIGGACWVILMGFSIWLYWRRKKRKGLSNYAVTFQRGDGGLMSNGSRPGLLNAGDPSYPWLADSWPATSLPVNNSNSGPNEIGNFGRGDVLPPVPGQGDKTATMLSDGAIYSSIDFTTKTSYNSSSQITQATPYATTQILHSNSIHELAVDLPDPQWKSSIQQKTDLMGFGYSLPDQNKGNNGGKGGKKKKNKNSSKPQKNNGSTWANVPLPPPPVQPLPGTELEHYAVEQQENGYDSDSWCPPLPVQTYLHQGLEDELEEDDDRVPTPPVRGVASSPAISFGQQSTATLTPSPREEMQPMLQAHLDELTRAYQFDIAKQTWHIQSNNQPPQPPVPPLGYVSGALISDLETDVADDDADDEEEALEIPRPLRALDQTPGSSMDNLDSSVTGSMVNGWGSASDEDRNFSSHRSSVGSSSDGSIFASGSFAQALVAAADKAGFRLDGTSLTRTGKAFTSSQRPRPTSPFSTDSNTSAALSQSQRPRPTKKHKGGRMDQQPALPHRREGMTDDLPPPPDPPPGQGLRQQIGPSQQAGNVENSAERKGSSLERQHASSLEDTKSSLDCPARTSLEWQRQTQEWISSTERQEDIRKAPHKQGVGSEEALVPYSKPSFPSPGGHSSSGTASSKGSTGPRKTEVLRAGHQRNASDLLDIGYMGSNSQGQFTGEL
The assay is described as follows: flow cytometry, HEK293 cells transfected with pCI-hROBO2, anti-mouse IgG FITC; control histogram IgG. How it is done:
HEK293 cells were inoculated at a concentration of 1.2×10⁶ cells/dish or 1.5×10⁶ cells/dish to a 60-mm dish (manufactured by Corning Inc.) and cultured overnight in a DMEM medium containing 10% FBS at 37° C. under 5% CO₂ conditions. On the next day, the HEK293 cells were transfected with pCI-hROBO4, pCI-FLAG-hROBO1, pCI-hROBO2, or pCI-hROBO3 using FuGENE6 Transfection Reagent and further cultured overnight at 37° C. under 5% CO₂ conditions. On the next day, the expression vector-transfected cells were treated with TrypLE Express (manufactured by Life Technologies Corp.), washed with PBS containing 5% FBS, and then suspended in PBS containing 5% FBS. The obtained cell suspension was used in flow cytometry analysis.
Each cell suspension prepared in 4)-4-1 was centrifuged, and the supernatant was removed. […] Data was analyzed using Flowjo. The histogram of FITC fluorescence intensity was prepared. The antibody was determined to bind in a specific manner when the histogram of MAb1 was shifted to a stronger fluorescence intensity region compared with the histogram of the negative control Mouse IgG1 or Mouse IgG2a. […]
(In general: In flow cytometry, cells or beads pass a laser one at a time.)

B1: anti-ROBO4 mouse monoclonal antibody MAb1 (antibody, mouse IgG1, V domains shown)
VH: EVQLVESGGGLVKPGGSLKLSCAASGFTFSTYAMSWVRQTPEKRLEWVATISNGGTYTYYPDSVKGRFTISRDNAENTLYLQMSSLRSEDTAMYFCARLIYYDYLDYWGHGTTLTVSS
VL: DAVMTQTPLSLPVSLGDQASISCRSSQSLENSNGNTYLNWYFQKPGQSPQLLIYRVSNRFSGVLDRFSGSGSGTDFTLKISRVEAEDFGVYFCLQVTHVPWTFGGGTKLEIKR
notes: Mouse IgG1 (gamma1), kappa light chain, purified from hybridoma supernatant; also called parent antibody MAb1
Consider B1, for which the binding result is on record as “no binding (tested: 10 µg/mL)”.
